Reference: US20220074941A1, “HSP90 COMBINATION THERAPY” (Sloan-Kettering Institute for Cancer Research, priority 2011, published 2022)

Assays:
[1] = system: Hsp90 complexes in Mia-PaCa-2 cell extract; assay: Nano-LC-MS/MS of PU-beads pull-downs; assay type: binding, human; conditions: protein identified in PU-beads pull-down of Mia-PaCa-2 cell extract; QSTAR-Elite QTof MS
Experimental: (§1) Lysates prepared as mentioned above were first pre-cleaned by incubation with control beads overnight at 4° C. […] Beads were washed with lysis buffer, proteins eluted by boiling in 2% SDS, separated on a denaturing gel and Coomassie stained according to manufacturer's procedure (Biorad). […] Analyses of the batch purified pools were done using a QSTAR-Elite hybrid quadrupole time-of-flight mass spectrometer (QTof MS) (AB/MDS Sciex), equipped with a nano spray ion source. Peptide mixtures (in 20 μL) are loaded onto a trapping guard column (0.3×5-mm PepMap C18 100 cartridge from LC Packings) using an Eksigent nano MDLC system (Eksigent Technologies, Inc) at a flow rate of 20 μL/min. […] Electrospray ionization (ESI) needle voltage was set at about 1800 V. The mass analyzer is operated in automatic, data-dependent MS/MS acquisition mode, with the threshold set to 10 counts per second of doubly or triply charged precursor ions selected for fragmentation scans. Survey scans of 0.25 sec are recorded from 400 to 1800 amu; up to 3 MS/MS scans are then collected sequentially for the selected precursor ions, recording from 100 to 1800 amu. The collision energy is automatically adjusted in accordance with the m/z value of the precursor ions selected for MS/MS. Selected precursor ions are excluded from repeated selection for 60 sec after the end of the corresponding fragmentation duty cycle. […] One missed tryptic cleavage site was allowed, precursor ion mass tolerance=0.4 Da fragment ion mass tolerance=0.4 Da, protein modifications were allowed for Met-oxide, Cys-acrylamide and N-terminal acetylation. MudPit scoring was typically applied with ‘require bold red’ activated, and using significance threshold score p<0.05. Unique peptide counts (or ‘spectral counts’) and percent sequence coverages for all identified proteins were exported to Scaffold Proteome Software (version 2_06_01, www.proteomesoftware.com) for further bioinformatic analysis (Table 5a). Using output from Mascot, Scaffold validates, organizes, and interprets mass spectrometry data, allowing more easily to manage large amounts of data, to compare samples, and to search for protein modifications.

[2] = system: Hsp90 complexes in K562 cell extract; assay: Nano-LC-MS/MS of PU-beads pull-downs; assay type: binding; conditions: protein identified in PU-beads pull-down of K562 cell extract, QSTAR-Elite QTof MS
Experimental: Protein cargo isolated from cell lysate with PU-beads or control-beads was subjected to proteomic analysis by nano liquid chromatography coupled to tandem mass spectrometry (nano LC-MS/MS). Initial protein identification was performed using the Mascot search engine, and was further evaluated using Scaffold Proteome Software (Tables 5a-d).
as §1

Row | Molecule | Number of Assigned Spectra, Mia-Paca 2 [1] | Number of Assigned Spectra, K562 Prep 1 [2] | Number of Assigned Spectra, K562 Prep 2 [2]
1 | FAM115A (protein, UniProt Q9Y4C2 1-921, looked up) TRPM8 channel-associated …: MATPSAAFEALMNGVTSWDVPEDAVPCELLLIGEASFPVMVNDMGQVLIAASSYGRGRLVVVSHEDYLVEAQLTPFLLNAVGWLCSSPGAPIGVHPSLAPLAKILEGSGVDAKVEPEVKDSLGVYCIDAYNETMTEKLVKFMKCGGGLLIGGQAWDWANQGEDERVLFTFPGNLVTSVAGIYFTDNKGDTSFFKVSKKMPKIPVLVSCEDDLSDDREELLHGISELDISNSDCFPSQLLVHGALAFPLGLDSYHGCVIAAARYGRGRVVVTGHKVLFTVGKLGPFLLNAVRWLDGGRRGKVVVQTELRTLSGLLAVGGIDTSIEPNLTSDASVYCFEPVSEVGVKELQEFVAEGGGLFVGAQAWWWAFKNPGVSPLARFPGNLLLNPFGISITSQSLNPGPFRTPKAGIRTYHFRSTLAEFQVIMGRKRGNVEKGWLAKLGPDGAAFLQIPAEEIPAYMSVHRLLRKLLSRYRLPVATRENPVINDCCRGAMLSLATGLAHSGSDLSLLVPEIEDMYSSPYLRPSESPITVEVNCTNPGTRYCWMSTGLYIPGRQIIEVSLPEAAASADLKIQIGCHTDDLTRASKLFRGPLVINRCCLDKPTKSITCLWGGLLYIIVPQNSKLGSVPVTVKGAVHAPYYKLGETTLEEWKRRIQENPGPWGELATDNIILTVPTANLRTLENPEPLLRLWDEVMQAVARLGAEPFPLRLPQRIVADVQISVGWMHAGYPIMCHLESVQELINEKLIRTKGLWGPVHELGRNQQRQEWEFPPHTTEATCNLWCVYVHETVLGIPRSRANIALWPPVREKRVRIYLSKGPNVKNWNAWTALETYLQLQEAFGWEPFIRLFTEYRNQTNLPTENVDKMNLWVKMFSHQVQKNLAPFFEAWAWPIQKEVATSLAYLPEWKENIMKLYLLTQMPH | 0 | 9 | 1
2 | NAT10 (protein, UniProt Q9H0A0 1-1025, looked up) RNA cytidine acetyltransferase: MHRKKVDNRIRILIENGVAERQRSLFVVVGDRGKDQVVILHHMLSKATVKARPSVLWCYKKELGFSSHRKKRMRQLQKKIKNGTLNIKQDDPFELFIAATNIRYCYYNETHKILGNTFGMCVLQDFEALTPNLLARTVETVEGGGLVVILLRTMNSLKQLYTVTMDVHSRYRTEAHQDVVGRFNERFILSLASCKKCLVIDDQLNILPISSHVATMEALPPQTPDESLGPSDLELRELKESLQDTQPVGVLVDCCKTLDQAKAVLKFIEGISEKTLRSTVALTAARGRGKSAALGLAIAGAVAFGYSNIFVTSPSPDNLHTLFEFVFKGFDALQYQEHLDYEIIQSLNPEFNKAVIRVNVFREHRQTIQYIHPADAVKLGQAELVVIDEAAAIPLPLVKSLLGPYLVFMASTINGYEGTGRSLSLKLIQQLRQQSAQSQVSTTAENKTTTTARLASARTLYEVSLQESIRYAPGDAVEKWLNDLLCLDCLNITRIVSGCPLPEACELYYVNRDTLFCYHKASEVFLQRLMALYVASHYKNSPNDLQMLSDAPAHHLFCLLPPVPPTQNALPEVLAVIQVCLEGEISRQSILNSLSRGKKASGDLIPWTVSEQFQDPDFGGLSGGRVVRIAVHPDYQGMGYGSRALQLLQMYYEGRFPCLEEKVLETPQEIHTVSSEAVSLLEEVITPRKDLPPLLLKLNERPAERLDYLGVSYGLTPRLLKFWKRAGFVPVYLRQTPNDLTGEHSCIMLKTLTDEDEADQGGWLAAFWKDFRRRFLALLSYQFSTFSPSLALNIIQNRNMGKPAQPALSREELEALFLPYDLKRLEMYSRNMVDYHLIMDMIPAISRIYFLNQLGDLALSAAQSALLLGIGLQHKSVDQLEKEIELPSGQLMGLFNRIIRKVVKLFNEVQEKAIEEQMVAAKDVVMEPTMKTLSDDLDEAAKEFQEKHKKEVGKLKSMDLSEYIIRGDDEEWNEVLNKAGPNASIISLKSDKKRKLEAKQEPKQSKKLKNRETKNKKDMKLKRKK | 1 | 8 | 3
3 | LTV1 (protein, UniProt Q96GA3 1-475, looked up) Protein LTV1 homolog: MPHRKKKPFIEKKKAVSFHLVHRSQRDPLAADESAPQRVLLPTQKIDNEERRAEQRKYGVFFDDDYDYLQHLKEPSGPSELIPSSTFSAHNRREEKEETLVIPSTGIKLPSSVFASEFEEDVGLLNKAAPVSGPRLDFDPDIVAALDDDFDFDDPDNLLEDDFILQANKATGEEEGMDIQKSENEDDSEWEDVDDEKGDSNDDYDSAGLLSDEDCMSVPGKTHRAIADHLFWSEETKSRFTEYSMTSSVMRRNEQLTLHDERFEKFYEQYDDDEIGALDNAELEGSIQVDSNRLQEVLNDYYKEKAENCVKLNTLEPLEDQDLPMNELDESEEEEMITVVLEEAKEKWDCESICSTYSNLYNHPQLIKYQPKPKQIRISSKTGIPLNVLPKKGLTAKQTERIQMINGSDLPKVSTQPRSKNESKEDKRARKQAIKEERKERRVEKKANKLAFKLEKRRQEKELLNLKKNVEGLKL | 0 | 5 | 6
4 | SUPV3L1 (protein, UniProt Q8IYB8 23-786, looked up) ATP-dependent RNA helicase …: AICSALRPHFGPFPGVLGQVSVLATASSSASGGSKIPNTSLFVPLTVKPQGPSADGDVGAELTRPLDKNEVKKVLDKFYKRKEIQKLGADYGLDARLFHQAFISFRNYIMQSHSLDVDIHIVLNDICFGAAHADDLFPFFLRHAKQIFPVLDCKDDLRKISDLRIPPNWYPDARAMQRKIIFHSGPTNSGKTYHAIQKYFSAKSGVYCGPLKLLAHEIFEKSNAAGVPCDLVTGEERVTVQPNGKQASHVSCTVEMCSVTTPYEVAVIDEIQMIRDPARGWAWTRALLGLCAEEVHLCGEPAAIDLVMELMYTTGEEVEVRDYKRLTPISVLDHALESLDNLRPGDCIVCFSKNDIYSVSRQIEIRGLESAVIYGSLPPGTKLAQAKKFNDPNDPCKILVATDAIGMGLNLSIRRIIFYSLIKPSINEKGERELEPITTSQALQIAGRAGRFSSRFKEGEVTTMNHEDLSLLKEILKRPVDPIRAAGLHPTAEQIEMFAYHLPDATLSNLIDIFVDFSQVDGQYFVCNMDDFKFSAELIQHIPLSLRVRYVFCTAPINKKQPFVCSSLLQFARQYSRNEPLTFAWLRRYIKWPLLPPKNIKDLMDLEAVHDVLDLYLWLSYRFMDMFPDASLIRDLQKELDGIIQDGVHNITKLIKMSETHKLLNLEGFPSGSQSRLSGTLKSQARRTRGTKALGSKATEPPSPDAGELSLASRLVQQGLLTPDMLKQLEKEWMTQQTEHNKEKTESGTHPKGTRRKKKEPDSD | 0 | 8 | 3
5 | FAM120A (protein, UniProt Q9NZB2 1-1118, looked up) Constitutive coactivator of …: MGVQGFQDYIEKHCPSAVVPVELQKLARGSLVGGGRQRPPQTPLRLLVDADNCLHRLYGGFYTDWVSGGQWNHMLGYLAALAKACFGGNIELFVFFNGALEKARLHEWVKRQGNERQTAQQIVSHVQNKGTPPPKVWFLPPVCMAHCIRLALIRFHVKVAQSIEDHHQEVIGFCRENGFHGLVAYDSDYALCNIPYYFSAHALKLSRNGKSLTTSQYLMHEVAKQLDLNPNRFPIFAALLGNHILPDEDLASFHWSLLGPEHPLASLKVRAHQLVLPPCDVVIKAVADYVRNIQDTSDLDAIAKDVFQHSQSRTDDKVIRFKRAIGYYSATSKPMSFHPPHYLAARPGPFGMPGMVPPHVPPQMLNIPQTSLQAKPVAPQVPSPGGAPGQGPYPYSLSEPAPLTLDTSGKNLTEQNSYSNIPHEGKHTPLYERSSPINPAQSGSPNHVDSAYFPGSSTSSSSDNDEGSGGATNHISGNKIGWEKTGSHSEPQARGDPGDQTKAEGSSTASSGSQLAEGKGSQMGTVQPIPCLLSMPTRNHMDITTPPLPPVAPEVLRVAEHRHKKGLMYPYIFHVLTKGEIKIAVSIEDEANKDLPPAALLYRPVRQYVYGVLFSLAESRKKTERLAFRKNRLPPEFSPVIIKEWAAYKGKSPQTPELVEALAFREWTCPNLKRLWLGKAVEDKNRRMRAFLACMRSDTPAMLNPANVPTHLMVLCCVLRYMVQWPGARILRRQELDAFLAQALSPKLYEPDQLQELKIENLDPRGIQLSALFMSGVDMALFANDACGQPIPWEHCCPWMYFDGKLFQSKLLKASREKTPLIDLCDGQADQAAKVEKMRQSVLEGLSFSRQSHTLPFPPPPALPFYPASAYPRHFGPVPPSQGRGRGFAGVCGFGGPYGETVATGPYRAFRVAAASGHCGAFSGSDSSRTSKSQGGVQPIPSQGGKLEIAGTVVGHWAGSRRGRGGRGPFPLQVVSVGGPARGRPRGVISTPVIRTFGRGGRYYGRGYKNQAAIQGRPPYAASAEEVAKELKSKSGESKSSAMSSDGSLAENGVMAEEKPAPQMNGSTGDARAPSHSESALNNDSKTCNTNPHLNALSTDSACRREAALEAAVLNKEE | 12 | 1 | 1
6 | TRIPI3 (protein, UniProt Q15645 1-432, looked up) Pachytene checkpoint protein …: MDEAVGDLKQALPCVAESPTVHVEVHQRGSSTAKKEDINLSVRKLLNRHNIVFGDYTWTEFDEPFLTRNVQSVSIIDTELKVKDSQPIDLSACTVALHIFQLNEDGPSSENLEEETENIIAANHWVLPAAEFHGLWDSLVYDVEVKSHLLDYVMTTLLFSDKNVNSNLITWNRVVLLHGPPGTGKTSLCKALAQKLTIRLSSRYRYGQLIEINSHSLFSKWFSESGKLVTKMFQKIQDLIDDKDALVFVLIDEVESLTAARNACRAGTEPSDAIRVVNAVLTQIDQIKRHSNVVILTTSNITEKIDVAFVDRADIKQYIGPPSAAAIFKIYLSCLEELMKCQIIYPRQQLLTLRELEMIGFIENNVSKLSLLLNDISRKSEGLSGRVLRKLPFLAHALYVQAPTVTIEGFLQALSLAVDKQFEERKKLAAYI | 8 | 3 | 3
